{
  "source": "paper PMC3613427",
  "key": {"[1]": {"molecular_target": "formate channel FocA from Vibrio cholerae (Vibrio cholerae)", "assay": "SEC-MALS"}, "[2]": {"molecular_target": "formate channel FocA from Vibrio cholerae (Vibrio cholerae)", "assay": "crystal structure"}},
  "data": [
    {"substance": "formate channel FocA from Vibrio cholerae (natural protein)", "values": [
      {"measurement": "stoichiometry N", "setting": "[1]", "result": 5},
      {"measurement": "stoichiometry N", "setting": "[2]", "result": 5}
    ]}
  ]
}
